Assay [1] addresses T1, human wildtype KRas4B 1-169 (C-terminal truncated) (human, UniProt P01116-2 1-169). The assay can be described thus: BLI; 2:1 heterogeneous model, binding type 2 (69-99 %). On the technique in general: Biolayer interferometry detects binding as a change in optical thickness at a sensor tip.
Assay [2] deals with T1, human wildtype KRas4B 1-169 (C-terminal …). The assay can be described thus: BLI; 1:2 bivalent model.

Among the data in publication PMC10576006 (2023) are Kd values, retold here.

B1: GST-Rgl2^RA (Ras association domain of human Rgl2, residues 643-740, fused with GST) (domain or fragment)
chain: GPGASDCRIIRVQMELGEDGSVYKSILVTSQDKAPSVISRVLKKNNRDSAVASEYELVQLLPGERELTIPASANVFYAMDGASHDFLLRQRRRSSTAT
As for B1, the figures for the Kd in assay [1] and in assay [2] were 1.62 µM and 48.2 µM, respectively.
